From the supplement of paper PMC10724198
± gives the standard deviation of the averaged measurements.

System: Saccharomyces cerevisiae
Assay: protein stability index of tFT-peptide fusion (C-terminal peptide) (PSI (0-1 scale)); higher = more stable (slower turnover)
Settings: genetic background: wild type; temperature: 30 C
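Note: PSI is a weighted mean of sequencing reads over stability bins, variants kept only with over 10 reads, mCherry proximal and sfGFP distal, peptide attached via GGGS linker.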

**Q.** Which protein stability index does the source give for PSNNHRPPGCAD here?
**A.** 0.685 ± 0.023

**Q.** Which protein stability index does the source give for RLLFPTLTAYLL here?
**A.** 0.63 ± 0.029

**Q.** How did the protein stability index turn out when RPGRSDRCLRWS was run?
**A.** 0.673 ± 0.017

**Q.** How did the protein stability index turn out when FPVSLSSVRMFV was run?
**A.** 0.6254 ± 0.0032

**Q.** How did the protein stability index turn out when PPLPSPPQPYSA was run?
**A.** 0.639 ± 0.013

**Q.** For TRSISPGTFWTS, which protein stability index is on record?
**A.** 0.723 ± 0.018

**Q.** With PDVNLVRRVMSL as the sequence, how does the protein stability index read?
**A.** 0.596 ± 0.053

**Q.** With HSRRCDGLPGWV as the sequence, how does the protein stability index read?
**A.** 0.671 ± 0.03

**Q.** With PVRIQTFLFCVP as the sequence, how does the protein stability index read?
**A.** 0.595 ± 0.012

**Q.** For LDEQKLKLPPVK, which protein stability index is on record?
**A.** 0.736 ± 0.024

**Q.** With RGLRRIPDAPPH as the sequence, how does the protein stability index read?
**A.** 0.757 ± 0.028

**Q.** Which protein stability index does the source give for FLSSPPPPLRVP here?
**A.** 0.694 ± 0.054

**Q.** WIRTCMLIQGQT was tested. Which protein stability index did it give?
**A.** 0.736 ± 0.021

**Q.** VLLATPFSAIFR was tested. Which protein stability index did it give?
**A.** 0.6907 ± 0.0057

**Q.** ALLGGQLVWNSK was tested. Which protein stability index did it give?
**A.** 0.667 ± 0.14

**Q.** How did the protein stability index turn out when FGCLFFSPLSIH was run?
**A.** 0.745 ± 0.043

**Q.** For ATDCHVYRPPDL, which protein stability index is on record?
**A.** 0.6941 ± 0.0013

**Q.** Which protein stability index does the source give for RMDIRVWATFCG here?
**A.** 0.705 ± 0.11

**Q.** With VDNTRKRSTNSV as the sequence, how does the protein stability index read?
**A.** 0.694 ± 0.021

**Q.** With ISCWHGYAKESS as the sequence, how does the protein stability index read?
**A.** 0.671 ± 0.039

**Q.** NKKQTKKKRKNK was tested. Which protein stability index did it give?
**A.** 0.731 ± 0.037

**Q.** How did the protein stability index turn out when GDLVRNARSLII was run?
**A.** 0.72 ± 0.014

**Q.** With RRAESRNEKQHS as the sequence, how does the protein stability index read?
**A.** 0.687 ± 0.017

**Q.** With TSYEAKKKWQVI as the sequence, how does the protein stability index read?
**A.** 0.645 ± 0.025

**Q.** With FGGGSWSMRWSW as the sequence, how does the protein stability index read?
**A.** 0.639 ± 0.024

**Q.** For VVAIGRVWGERA, which protein stability index is on record?
**A.** 0.68 ± 0.059

**Q.** How did the protein stability index turn out when GLPPLAMPALSI was run?
**A.** 0.72 ± 0.057

**Q.** FLLSILPFISFC was tested. Which protein stability index did it give?
**A.** 0.527 ± 0.1

**Q.** Which protein stability index does the source give for PPHPPNFSSPPP here?
**A.** 0.656 ± 0.023

**Q.** With SAYASCFGSESL as the sequence, how does the protein stability index read?
**A.** 0.675 ± 0.05

**Q.** How did the protein stability index turn out when DEFRVALGSVTC was run?
**A.** 0.65 ± 0.12

**Q.** Which protein stability index does the source give for KKNKQEKPKKPK here?
**A.** 0.698 ± 0.0062

**Q.** IKIKKKKKKRHR was tested. Which protein stability index did it give?
**A.** 0.651 ± 0.059

**Q.** ISVLSIFVDSFV was tested. Which protein stability index did it give?
**A.** 0.528 ± 0.0062

**Q.** How did the protein stability index turn out when LSSGSCLESPFT was run?
**A.** 0.732 ± 0.08

**Q.** With TILKLLSEELDK as the sequence, how does the protein stability index read?
**A.** 0.613 ± 0.025

**Q.** With DGAAGTGGAMGF as the sequence, how does the protein stability index read?
**A.** 0.669 ± 0.068

**Q.** For GGRGWRSGTEGE, which protein stability index is on record?
**A.** 0.675 ± 0.013

**Q.** How did the protein stability index turn out when PPSPRPALPLSL was run?
**A.** 0.762 ± 0.039

**Q.** For RSEIKKPIVIKT, which protein stability index is on record?
**A.** 0.576 ± 0.045

**Q.** RRSVSSRGCLFR was tested. Which protein stability index did it give?
**A.** 0.7 ± 0.008

**Q.** Which protein stability index does the source give for FMSRDPKDDTET here?
**A.** 0.685 ± 0.076

**Q.** How did the protein stability index turn out when GCGEGNVRPCEL was run?
**A.** 0.6347 ± 0.0011

**Q.** Which protein stability index does the source give for QLVCCAKCGAVG here?
**A.** 0.665 ± 0.035

**Q.** With SCVDRAVGCRVS as the sequence, how does the protein stability index read?
**A.** 0.6961 ± 0.0042

**Q.** GLASLTGVPRCW was tested. Which protein stability index did it give?
**A.** 0.723 ± 0.027

**Q.** With PGCGVGSPARAE as the sequence, how does the protein stability index read?
**A.** 0.712 ± 0.032

**Q.** Which protein stability index does the source give for RLPAVPSHPGLL here?
**A.** 0.729 ± 0.037

**Q.** How did the protein stability index turn out when LRSIAVLPPSPF was run?
**A.** 0.695 ± 0.039

**Q.** VLHAGACARANR was tested. Which protein stability index did it give?
**A.** 0.708 ± 0.043

**Q.** With SCCPVESSHSLP as the sequence, how does the protein stability index read?
**A.** 0.612 ± 0.055

**Q.** How did the protein stability index turn out when PFVGFSLLWLGF was run?
**A.** 0.567 ± 0.017

**Q.** Which protein stability index does the source give for SPANLGFKHSGR here?
**A.** 0.674 ± 0.021

**Q.** PPPPRAPVPLPV was tested. Which protein stability index did it give?
**A.** 0.575 ± 0.022

**Q.** LIFPPLPPLPPR was tested. Which protein stability index did it give?
**A.** 0.754 ± 0.01

**Q.** How did the protein stability index turn out when TPFVPLAPLPRS was run?
**A.** 0.728 ± 0.056

**Q.** KDEVESGRGLIS was tested. Which protein stability index did it give?
**A.** 0.633 ± 0.044

**Q.** How did the protein stability index turn out when ASPSAPPRPPTP was run?
**A.** 0.697 ± 0.013

**Q.** Which protein stability index does the source give for WVSDTNNTSRRK here?
**A.** 0.752 ± 0.051

**Q.** ISWERIHEKKRK was tested. Which protein stability index did it give?
**A.** 0.784 ± 0.096

**Q.** PPYSLLFHPFPF was tested. Which protein stability index did it give?
**A.** 0.699 ± 0.018

**Q.** Which protein stability index does the source give for LRAVRDSLMSQC here?
**A.** 0.681 ± 0.033

**Q.** With FSPSPPPPPFPL as the sequence, how does the protein stability index read?
**A.** 0.659 ± 0.024

**Q.** For LLSFLLFFVPGS, which protein stability index is on record?
**A.** 0.576 ± 0.0013

**Q.** For GGGLGAGWGVWG, which protein stability index is on record?
**A.** 0.68 ± 0.035

**Q.** With SPRFVPPPAILR as the sequence, how does the protein stability index read?
**A.** 0.558 ± 0.0088

**Q.** VYKRNILHLASE was tested. Which protein stability index did it give?
**A.** 0.681 ± 0.13

**Q.** With LGPRVGDPDGRF as the sequence, how does the protein stability index read?
**A.** 0.742 ± 0.019

**Q.** How did the protein stability index turn out when CFASLLSFCPLV was run?
**A.** 0.695 ± 0.065

**Q.** With GGGLGGGGFRGG as the sequence, how does the protein stability index read?
**A.** 0.749 ± 0.033

**Q.** How did the protein stability index turn out when FWSCCCTLLFCV was run?
**A.** 0.5974 ± 0.002

**Q.** With ELVGLAHVLELA as the sequence, how does the protein stability index read?
**A.** 0.655 ± 0.084

**Q.** Which protein stability index does the source give for KGDKIEFVENKY here?
**A.** 0.641 ± 0.022

**Q.** Which protein stability index does the source give for HGQGWRPTYLSI here?
**A.** 0.796 ± 0.1

**Q.** Which protein stability index does the source give for AEVRGTVGRLVG here?
**A.** 0.632 ± 0.011

**Q.** With KKRREKRTEKKQ as the sequence, how does the protein stability index read?
**A.** 0.661 ± 0.027

**Q.** For LPPPPPHRTGDC, which protein stability index is on record?
**A.** 0.5859 ± 0.0028

**Q.** For GVVWMSCGGWGG, which protein stability index is on record?
**A.** 0.764 ± 0.028

**Q.** KKTKKGINVEER was tested. Which protein stability index did it give?
**A.** 0.662 ± 0.0097

**Q.** GGGWSRGGVGDR was tested. Which protein stability index did it give?
**A.** 0.672 ± 0.027

**Q.** Which protein stability index does the source give for CRWLAKRVKDSS here?
**A.** 0.629 ± 0.04
